Our source for the stoichiometry N values is publication PMC3958349.

For assay [1], the target named is eGFP-GR (wild-type mouse glucocorticoid receptor with eGFP fused to its N-terminal end) (mouse) (UniProt P06537). In words: number and brightness (N&B) analysis; living BHK cells transiently transfected with pEGFP-GR or pEGFP-GR^A465T; 10 µM 21OH-6,19OP; nuclear brightness ε.
For assay [2] the target is unchanged. In words: number and brightness (N&B) analysis; living BHK cells transiently transfected with pEGFP-GR or its mutants; 100 nM (0.1 µM) Dex or 100 nM Cort for at least 1 h; nuclear brightness ε relative to vehicle; ligand washout also tested (Cort withdrawal reduced the dimers, Dex washout did not).
For assay [3] the target is unchanged. In words: number and brightness (N&B) analysis; living GR-null MEF cell lines stably expressing eGFP-GR or its mutants at endogenous levels; 100 nM Dex or 100 nM Cort; nuclear brightness ε.
Assay [4] concerns the target eGFP-GR^A465T (mouse) (UniProt P06537). Described as above.
The target is the same in assay [5]. In words: number and brightness (N&B) analysis; living 3617 cells (tetracycline to inhibit the stable GFP-GR) transiently transfected with pEGFP-GR or its mutants; 100 nM Dex or 100 nM Cort for at least 30 min; nuclear brightness ε.
The target of a further assay is mCherry-GR (wild type) (UniProt P06537). In words: number and brightness (N&B) analysis; living 3617 cells transiently expressing mCherry, mCherryGRwt, GFP and/or GFP-p65; 300 nM Cort and/or 10 ng/ml TNF-α; nuclear brightness ε in the green and red channels.

Sequence of mCherry-GR (wild type) (P06537 whole entry): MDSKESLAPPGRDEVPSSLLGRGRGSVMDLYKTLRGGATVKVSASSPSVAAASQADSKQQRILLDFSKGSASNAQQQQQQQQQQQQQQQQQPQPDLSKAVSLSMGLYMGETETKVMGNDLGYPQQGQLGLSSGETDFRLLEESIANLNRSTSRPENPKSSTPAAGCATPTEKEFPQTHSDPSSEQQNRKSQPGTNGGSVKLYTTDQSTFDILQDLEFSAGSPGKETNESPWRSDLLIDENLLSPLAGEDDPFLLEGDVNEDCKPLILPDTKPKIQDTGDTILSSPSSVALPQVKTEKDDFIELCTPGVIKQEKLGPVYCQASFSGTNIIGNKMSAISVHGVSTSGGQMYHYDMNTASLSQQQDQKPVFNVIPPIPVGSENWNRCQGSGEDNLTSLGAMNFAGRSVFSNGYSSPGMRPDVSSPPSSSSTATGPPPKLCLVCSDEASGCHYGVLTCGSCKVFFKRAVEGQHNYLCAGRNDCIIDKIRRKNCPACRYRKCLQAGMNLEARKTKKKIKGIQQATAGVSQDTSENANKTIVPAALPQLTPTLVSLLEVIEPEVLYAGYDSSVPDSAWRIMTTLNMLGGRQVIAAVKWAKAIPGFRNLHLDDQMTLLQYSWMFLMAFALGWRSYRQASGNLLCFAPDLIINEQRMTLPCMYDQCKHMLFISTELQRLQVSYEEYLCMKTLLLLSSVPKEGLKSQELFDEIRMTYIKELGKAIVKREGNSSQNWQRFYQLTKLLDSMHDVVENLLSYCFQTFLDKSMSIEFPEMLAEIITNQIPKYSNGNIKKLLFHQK

By stoichiometry N is commonly meant the number of molecules, sites or subunits per partner or assembly. In the case of “eGFP-GR (wild-type mouse glucocorticoid receptor with eGFP fused to its N-terminal end) (from UniProt P06537 1-792)”, the stoichiometry N in assay [1], in assay [2] and in assay [3] was 2 throughout.
Take “eGFP-GR^A465T (from UniProt P06537 1-792) (receptor)”: the stoichiometry N with eGFP-GR^A465T (mouse) [4] and in the assay with eGFP-GR^A465T (mouse) [5] was 2 each time.
“mCherry-GR (wild type) (from UniProt P06537 1-792) (receptor)”: the stoichiometry N with mCherry-GR (wild type) was 2.
